The values below come from the supplement of paper PMC9112550, “Optimization of the antimicrobial peptide Bac7 by deep mutational scanning” (BMC Biology, 2022).

This data set has as its system Escherichia coli TOP10. The experiment in a line: shrunken log2 fold change of peptide-encoding DNA abundance (4.5 h post-induction vs induction); higher = less antimicrobial activity (less host growth inhibition). The conditions noted are these: time post-induction: 4.5 h; library: site-saturation at positions 5, 18, 19, 20.
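Also: peptides expressed intracellularly from a pBAD plasmid library in pooled LB shake-flask culture, induced with 0.3% L-arabinose, DNA abundance read by NGS, three biological replicates, DESeq2 with apeglm shrinkage.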

As to RRIRLRPPRLPRPRPRPRVMPRP, the “shrunken log2 fold change” value stood at 0.0356.
With RRIRMRPPRLPRPRPRPMILPRP, the “shrunken log2 fold change” value was -0.0491.
For RRIRLRPPRLPRPRPRPSVRPRP, the “shrunken log2 fold change” value is 0.0468.
As to RRIRMRPPRLPRPRPRPCEEPRP, the “shrunken log2 fold change” value stood at 0.0566.
In the case of RRIRFRPPRLPRPRPRPYWAPRP it was -0.328; in that of RRIRLRPPRLPRPRPRPSEVPRP, -0.396; in that of RRIRMRPPRLPRPRPRPCYMPRP, -0.605.
Regarding RRIRTRPPRLPRPRPRPDQPPRP, the “shrunken log2 fold change” value came to 0.00486.
With RRIRLRPPRLPRPRPRPLRSPRP the figure was 0.474; with RRIRERPPRLPRPRPRPDAHPRP, -0.308; with RRIRSRPPRLPRPRPRPGWNPRP, 0.0897.
In the case of RRIRVRPPRLPRPRPRPVKAPRP, the “shrunken log2 fold change” value turned out to be 0.0603.
Take RRIRVRPPRLPRPRPRPYKHPRP: the “shrunken log2 fold change” value is -0.81.
As to RRIRARPPRLPRPRPRPKQTPRP, the “shrunken log2 fold change” value stood at 0.453.
Take RRIRKRPPRLPRPRPRPRMNPRP: the “shrunken log2 fold change” value came to 0.115.
Turning to RRIRVRPPRLPRPRPRPMYLPRP, the “shrunken log2 fold change” value was -0.0313.
In the case of RRIRARPPRLPRPRPRPCTWPRP it was 0.108; in that of RRIRVRPPRLPRPRPRPKRRPRP, -0.0117; in that of RRIRTRPPRLPRPRPRPVMDPRP, -0.478.
With RRIRARPPRLPRPRPRPANGPRP the figure was 0.109.
For RRIRRRPPRLPRPRPRPWDCPRP, the “shrunken log2 fold change” value was -0.033.
Regarding RRIRWRPPRLPRPRPRPITYPRP, the “shrunken log2 fold change” value is -0.828.
As for RRIRKRPPRLPRPRPRPWFAPRP, the “shrunken log2 fold change” value is 0.171.
Consider RRIRPRPPRLPRPRPRPVYKPRP, for which the “shrunken log2 fold change” value was -0.199.
As for RRIRRRPPRLPRPRPRPHSCPRP, the “shrunken log2 fold change” value came out at 0.0404.
In the case of RRIRSRPPRLPRPRPRPYYLPRP it was -0.7; in that of RRIRVRPPRLPRPRPRPSIFPRP, -0.606; in that of RRIRDRPPRLPRPRPRPKKMPRP, -0.0785.
Take RRIRFRPPRLPRPRPRPAPEPRP: the “shrunken log2 fold change” value was 0.81.
Take RRIRKRPPRLPRPRPRPFSAPRP: the “shrunken log2 fold change” value was -0.12.
Consider RRIRWRPPRLPRPRPRPEGPPRP, for which the “shrunken log2 fold change” value stood at 0.438.
For the sequence RRIRNRPPRLPRPRPRPVCFPRP, the “shrunken log2 fold change” value is -0.162.
For the sequence RRIRFRPPRLPRPRPRPYQHPRP, the “shrunken log2 fold change” value is -0.898.
For the sequence RRIRNRPPRLPRPRPRPKTCPRP, the “shrunken log2 fold change” value was found to be 0.0411.
Regarding RRIRIRPPRLPRPRPRPNALPRP, the “shrunken log2 fold change” value was -0.245.
As for RRIRTRPPRLPRPRPRPIQLPRP, the “shrunken log2 fold change” value was -0.122.
On to RRIRLRPPRLPRPRPRPLNDPRP, for which the “shrunken log2 fold change” value is -0.0903.
For the sequence RRIRHRPPRLPRPRPRPYYLPRP, the “shrunken log2 fold change” value is -0.72.
Turning to RRIRERPPRLPRPRPRPGLRPRP, the “shrunken log2 fold change” value was 0.0748.
With RRIRWRPPRLPRPRPRPQEYPRP the figure was -0.0612; with RRIRLRPPRLPRPRPRPYSFPRP, -0.841.
For the sequence RRIRLRPPRLPRPRPRPEVQPRP, the “shrunken log2 fold change” value came out at 0.0654.
As for RRIRMRPPRLPRPRPRPVWWPRP, the “shrunken log2 fold change” value was -0.0717.
For the sequence RRIRPRPPRLPRPRPRPMQWPRP, the “shrunken log2 fold change” value turned out to be 0.169.
Regarding RRIRFRPPRLPRPRPRPGENPRP, the “shrunken log2 fold change” value came to 0.995.
Turning to RRIRQRPPRLPRPRPRPNHYPRP, the “shrunken log2 fold change” value was -0.36.
With RRIRQRPPRLPRPRPRPSIMPRP, the “shrunken log2 fold change” value is -0.0993.
With RRIRGRPPRLPRPRPRPVWVPRP, the “shrunken log2 fold change” value was 0.509.
On to RRIRIRPPRLPRPRPRPYILPRP, for which the “shrunken log2 fold change” value was -0.463.
As to RRIRQRPPRLPRPRPRPISDPRP, the “shrunken log2 fold change” value was 0.0109.
Take RRIRRRPPRLPRPRPRPGQEPRP: the “shrunken log2 fold change” value stood at 0.777.
Turning to RRIRFRPPRLPRPRPRPSPTPRP, the “shrunken log2 fold change” value is 0.313.
As to RRIRIRPPRLPRPRPRPHPMPRP, the “shrunken log2 fold change” value was -0.133.
In the case of RRIRTRPPRLPRPRPRPGIEPRP, the “shrunken log2 fold change” value is -0.278.
Take RRIRIRPPRLPRPRPRPHSIPRP: the “shrunken log2 fold change” value was -0.933.
Regarding RRIRGRPPRLPRPRPRPFVVPRP, the “shrunken log2 fold change” value was found to be 0.222.
Turning to RRIRWRPPRLPRPRPRPLMKPRP, the “shrunken log2 fold change” value is -0.0639.
Turning to RRIRGRPPRLPRPRPRPINKPRP, the “shrunken log2 fold change” value was found to be 0.287.
Consider RRIRMRPPRLPRPRPRPSDYPRP, for which the “shrunken log2 fold change” value was 0.0806.
Consider RRIRWRPPRLPRPRPRPFLCPRP, for which the “shrunken log2 fold change” value is -0.139.
With RRIRLRPPRLPRPRPRPIHDPRP the figure was -0.302; with RRIRERPPRLPRPRPRPMSWPRP, 0.13.
For the sequence RRIRERPPRLPRPRPRPMRQPRP, the “shrunken log2 fold change” value was found to be 0.575.
Turning to RRIRGRPPRLPRPRPRPHSIPRP, the “shrunken log2 fold change” value turned out to be 0.169.
Turning to RRIRKRPPRLPRPRPRPYMFPRP, the “shrunken log2 fold change” value is -0.109.
Regarding RRIRERPPRLPRPRPRPTFIPRP, the “shrunken log2 fold change” value is -0.291.
With RRIRERPPRLPRPRPRPKLDPRP the figure was -0.052.
Take RRIRGRPPRLPRPRPRPDWDPRP: the “shrunken log2 fold change” value came to 0.596.
For RRIRTRPPRLPRPRPRPQCIPRP, the “shrunken log2 fold change” value is -0.247.
On to RRIRGRPPRLPRPRPRPHGWPRP, for which the “shrunken log2 fold change” value was found to be 0.161.
With RRIRFRPPRLPRPRPRPVCIPRP the figure was -0.541; with RRIRLRPPRLPRPRPRPSRPPRP, 0.233.
As to RRIRIRPPRLPRPRPRPSYDPRP, the “shrunken log2 fold change” value was -0.414.
Take RRIRRRPPRLPRPRPRPHISPRP: the “shrunken log2 fold change” value was -0.0794.
With RRIRRRPPRLPRPRPRPTLGPRP the figure was 0.138.
Take RRIRERPPRLPRPRPRPMREPRP: the “shrunken log2 fold change” value came out at 0.992.
With RRIRSRPPRLPRPRPRPECCPRP the figure was 0.21; with RRIRWRPPRLPRPRPRPNVRPRP, 0.057; with RRIRMRPPRLPRPRPRPTDHPRP, 0.309.
Regarding RRIRGRPPRLPRPRPRPSHIPRP, the “shrunken log2 fold change” value stood at 0.0558.
With RRIRERPPRLPRPRPRPTAVPRP, the “shrunken log2 fold change” value is -0.113.
Consider RRIRVRPPRLPRPRPRPKLIPRP, for which the “shrunken log2 fold change” value was -0.198.
RRIRVRPPRLPRPRPRPWCYPRP: the “shrunken log2 fold change” value was -0.366.
RRIRTRPPRLPRPRPRPFIQPRP: the “shrunken log2 fold change” value is -0.312.
In the case of RRIRQRPPRLPRPRPRPEHRPRP it was -0.271.
Turning to RRIRLRPPRLPRPRPRPMMFPRP, the “shrunken log2 fold change” value is -0.269.
Turning to RRIRPRPPRLPRPRPRPWWMPRP, the “shrunken log2 fold change” value was found to be 0.0483.
As for RRIRSRPPRLPRPRPRPKSVPRP, the “shrunken log2 fold change” value was -0.0236.
In the case of RRIRSRPPRLPRPRPRPWNGPRP it was -0.0136.
On to RRIRLRPPRLPRPRPRPWKWPRP, for which the “shrunken log2 fold change” value is -0.184.
For the sequence RRIRYRPPRLPRPRPRPLHHPRP, the “shrunken log2 fold change” value is -1.14.
For RRIRYRPPRLPRPRPRPGAYPRP, the “shrunken log2 fold change” value was -0.292.
Consider RRIRTRPPRLPRPRPRPLGIPRP, for which the “shrunken log2 fold change” value is -0.638.
For RRIRARPPRLPRPRPRPSWLPRP, the “shrunken log2 fold change” value is 0.0254.
Regarding RRIRLRPPRLPRPRPRPESVPRP, the “shrunken log2 fold change” value was found to be 0.255.
Take RRIRTRPPRLPRPRPRPWRWPRP: the “shrunken log2 fold change” value is 0.554.
In the case of RRIRTRPPRLPRPRPRPNWSPRP, the “shrunken log2 fold change” value stood at 0.0464.
With RRIRGRPPRLPRPRPRPVMRPRP the figure was 0.749.
With RRIRHRPPRLPRPRPRPDMPPRP the figure was 0.144; with RRIRHRPPRLPRPRPRPESHPRP, -0.0331; with RRIRFRPPRLPRPRPRPQEVPRP, 0.0758.
Regarding RRIRERPPRLPRPRPRPQLLPRP, the “shrunken log2 fold change” value was -0.324.
Regarding RRIRNRPPRLPRPRPRPVFLPRP, the “shrunken log2 fold change” value was -0.215.
RRIRSRPPRLPRPRPRPHYGPRP: the “shrunken log2 fold change” value was -0.00176.
In the case of RRIRARPPRLPRPRPRPCQQPRP it was -0.00897.
Consider RRIRGRPPRLPRPRPRPEDIPRP, for which the “shrunken log2 fold change” value came to 0.165.
As for RRIRMRPPRLPRPRPRPGNVPRP, the “shrunken log2 fold change” value was -0.0105.
With RRIRIRPPRLPRPRPRPQAMPRP, the “shrunken log2 fold change” value was -0.0316.
Regarding RRIRRRPPRLPRPRPRPRCIPRP, the “shrunken log2 fold change” value amounted to 0.174.
Consider RRIRLRPPRLPRPRPRPTFYPRP, for which the “shrunken log2 fold change” value is -0.273.
In the case of RRIRYRPPRLPRPRPRPPVRPRP it was 0.0631; in that of RRIRTRPPRLPRPRPRPEFEPRP, 0.0862; in that of RRIRSRPPRLPRPRPRPYCEPRP, -0.352.
For the sequence RRIRGRPPRLPRPRPRPVGMPRP, the “shrunken log2 fold change” value worked out at 0.907.
RRIRWRPPRLPRPRPRPENKPRP: the “shrunken log2 fold change” value is -0.13.
With RRIRIRPPRLPRPRPRPQTEPRP, the “shrunken log2 fold change” value was -0.168.
With RRIRVRPPRLPRPRPRPWINPRP the figure was -0.565; with RRIRARPPRLPRPRPRPSTYPRP, -0.356; with RRIRSRPPRLPRPRPRPLCRPRP, -0.0794.
As to RRIRTRPPRLPRPRPRPEHSPRP, the “shrunken log2 fold change” value is -0.237.
In the case of RRIRRRPPRLPRPRPRPMMWPRP it was 0.487; in that of RRIRIRPPRLPRPRPRPFMYPRP, -1.36; in that of RRIRSRPPRLPRPRPRPSKTPRP, -0.159.
With RRIRTRPPRLPRPRPRPHAAPRP, the “shrunken log2 fold change” value was 0.0465.
Take RRIRWRPPRLPRPRPRPRIFPRP: the “shrunken log2 fold change” value stood at 0.499.
